Holding throughout (assay): ELISA
Background: ELISA stands for enzyme-linked immunosorbent assay.

Assay [1] deals with T1, His-lasp-2 (full-length) (UniProt Q9DC07 1-270).
T1 sequence: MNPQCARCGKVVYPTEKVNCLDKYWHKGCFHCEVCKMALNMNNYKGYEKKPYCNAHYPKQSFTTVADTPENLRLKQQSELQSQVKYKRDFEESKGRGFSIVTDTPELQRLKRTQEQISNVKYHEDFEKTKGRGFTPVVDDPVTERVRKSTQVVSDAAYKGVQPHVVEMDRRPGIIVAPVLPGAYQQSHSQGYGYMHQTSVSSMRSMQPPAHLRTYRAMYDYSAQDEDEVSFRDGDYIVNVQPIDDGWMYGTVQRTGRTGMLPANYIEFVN

For assay [2], the target named is T1, His-lasp-2 (full-length). The source holds these as a separate data set.
Assay [3] addresses His-paxillin (full-length) (UniProt P49023 1-591).

Read-outs that look alike come from different tables or passages of the source.

Sequence of His-paxillin (full-length) (P49023 whole entry): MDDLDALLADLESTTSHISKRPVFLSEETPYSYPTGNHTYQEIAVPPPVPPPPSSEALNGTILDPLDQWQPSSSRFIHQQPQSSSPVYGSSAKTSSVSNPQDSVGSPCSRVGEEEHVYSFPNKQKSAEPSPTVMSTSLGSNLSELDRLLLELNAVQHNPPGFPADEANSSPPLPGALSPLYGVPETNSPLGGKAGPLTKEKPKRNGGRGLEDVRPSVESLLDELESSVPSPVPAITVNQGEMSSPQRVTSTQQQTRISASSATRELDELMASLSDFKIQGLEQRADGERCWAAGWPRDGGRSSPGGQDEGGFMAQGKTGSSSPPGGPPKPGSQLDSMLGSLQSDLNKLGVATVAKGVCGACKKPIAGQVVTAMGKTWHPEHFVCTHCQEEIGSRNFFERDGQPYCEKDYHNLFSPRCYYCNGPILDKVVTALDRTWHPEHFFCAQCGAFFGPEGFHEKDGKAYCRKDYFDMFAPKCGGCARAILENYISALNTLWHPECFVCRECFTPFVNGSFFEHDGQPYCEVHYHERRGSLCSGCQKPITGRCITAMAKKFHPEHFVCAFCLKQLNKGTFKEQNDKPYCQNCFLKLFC

B1: His-vinculin-tail (amino acids 840-1066) (domain or fragment)
chain: PDFPPPPPDLEQLRLTDELAPPKPPLPEGEVPPPRPPPPEEKDEEFPEQKAGEVINQPMMMAARQLHDEARKWSSKGNDIIAAAKRMALLMAEMSRLVRGGSGTKRALIQCAKDIAKASDEVTRLAKEVAKQCTDKRIRTNLLQVCERIPTISTQLKILSTVKATMLGRTNISDEESEQATEMLVHNAQNLMQSVKETVREAEAASIKIRTDAGFTLRWVRKTPWYQ
In turn, B1 registered a Kd in assay [1] of approximately 140 nM.

B2: GST-lasp-1 (full-length) (natural protein)
chain: MNPNCARCGKIVYPTEKVNCLDKYWHKACFHCETCKMTLNMKNYKGYEKKPYCNAHYPKQSFTMVADTPENLRLKQQSELQSQVRYKEEFEKNKGKGFSVVADTPELQRIKKTQDQISNIKYHEEFEKSRMGPSGGEGVEPERREAQDSSSYRRPTEQQQPQPHHIPTSAPVYQQPQQQQMTSSYGGYKEPAAPVSIQRSAPGGGGKRYRAVYDYSAADEDEVSFQDGDTIVNVQQIDDGWMYGTVERTGDTGMLPANYVEAI
For the molecule B2, the Kd in assay [2] was approximately 15 nM.

B3: GST-lasp-2 (full-length) (natural protein)
chain: T1 sequence
B3 returned a dissociation constant (Kd) in assay [3] of approximately 20 nM.

Usually Kd stands for the concentration at which binding is half-saturated. Read a high Kd as weaker binding.
